As a reminder, the Kd is the equilibrium constant for the complex coming apart. A high value points to weaker binding.

The target of test [1] is full-length N-terminal signaling domain of human Sonic hedgehog (ShhN), residues 24-193, without lipid attachments (UniProt Q15465). Briefly: BLI. As to conditions: 4 μM SHH (per earlier reader's note; not printed in panel or legend); parent: est. 0.077; read off a plot.
Test [2] concerns the target biotinylated human HHAT-Avi-1D4 (pHR-CMV-TetO2-HHAT-wildtype-Avi-1D4) (human) (UniProt Q5VTY9). Nature of the test: BLI; SHH on immobilised biotinylated HHAT-Avi-1D4, 22°C, same buffer without nhPalm-CoA. For orientation: In BLI a coated tip is dipped into the sample, and binding shifts an interference pattern.
Test [3] shares this target. Nature of the test: BLI; biotinylated HHAT-Avi-1D4 on streptavidin biosensors, 22°C, SHH in 10 mM HEPES pH 7.5, 150 mM NaCl, 0.06% DDM 40:1 CHS, 1 mM DTT, 5 mM CaCl2 with 5-10 mM nhPalm-CoA; multi-cycle kinetics, 300 s association and dissociation, 1:1.5 dilution series from 5 μM; one to two state binding model.

Turning to “biotinylated human HHAT-Avi-1D4 (pHR-CMV-TetO2-HHAT-wildtype-Avi-1D4) (from UniProt Q5VTY9) Y382A; Y384A”, the response in test [1] came out at 0.011 nm.
As for “full-length N-terminal signaling domain of human Sonic hedgehog (ShhN), residues 24-193, without lipid attachments (from UniProt Q15465 24-193) (domain or fragment)”, in test [2], the fold reduction of binding without nhPalm-CoA against with nhPalm-CoA was found to be 3 fold and the percent reduction of binding without Palm-CoA came to 50%. The substance further returned a Kd in test [3] of 3.7 µM.
As for “biotinylated human HHAT-Avi-1D4 (pHR-CMV-TetO2-HHAT-wildtype-Avi-1D4) (from UniProt Q5VTY9) E59R”, the response in test [1] was -0.012 nm.

Source of the values: paper PMC8693861.
